The supplement of paper PMC11502859
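Also: lentiviral eGFP-IRES-mCherry reporter pool sorted by FACS 96 h post-transduction, gated on mCherry-high cells, Illumina read counts normalized per million, median across four biological replicates.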

Each substance was assayed on HEK293T (assay: median enrichment of reporter reads in eGFP-reduced (low/intermediate) vs eGFP-high sorted cells (eGFP-extension fusion abundance) (ratio); higher = stronger loss of eGFP-fusion protein abundance (more destabilising extension)).
Work on “LRWLACWAWGLLTDSMEQGWAVCAHAQHALRGGGGGRGFLMSVQELKVSGVLPRICPTPHDKTELCNKQYQFILAVGFCFFSS [WDR6]” yielded a median enrichment of 7.93.
LSCPDAME [MYH2] gave a median enrichment of 0.416.
Work on LSDHPAFPN [TMBIM6] yielded a median enrichment of 0.54.
Work on LSEQVNSRTGAEALPKMK [UVRAG] yielded a median enrichment of 0.405.
For LSFCLA [UTP3], the median enrichment was 8.65.
Substance “LSFRQFSSNGPFQGRPLPLRKSCDCILSDGNISMALLGYSA [HIST1H4B]” has a median enrichment of 5.72.
With LSGAQE [HELLS] the median enrichment was 0.562.
With LSGLCT [LCE1A] the median enrichment was 0.479.
LSGP [LCE1C] showed a median enrichment of 0.649.
LSHA [CACNG6] gave a median enrichment of 0.594.
Substance “LSLLIQKWGQFRKNYLLFAWWFFIMDLAQKKNC [GART]” has a median enrichment of 11.7.
LSLTALPGANSGT [ANKZF1] gave a median enrichment of 1.24.
With LSLTASLK [TEX35] the median enrichment was 1.49.
Work on LSPLFLPTLQGPHSPYPSVQCTREETLCL [IDH3B] yielded a median enrichment of 7.06.
Substance LSPLRNIINCRL [DKK2] has a median enrichment of 8.81.
LSPQMGAEIFQSLEFFQ [ZNF112] gave a median enrichment of 0.686.
In the case of LSQTSFYIREPFQYSESETPA [ZNF12], the median enrichment was 3.12.
For LSRL [ESM1], the median enrichment was 10.3.
With “LSRLCTQGPSLATSLPFCLTPGHPSSLPHAQLPESPLCLTSPSTNGTPEGL [CYP11B1]” the median enrichment was 2.58.
LSRLLASMDFSRDVDIVLRVH [DIP2C] gave a median enrichment of 10.3.
Substance LSRLW [CREG1] has a median enrichment of 16.6.
In the case of LSSC [KRTAP13-1], the median enrichment was 0.413.
LSSQLPGPLP [COMMD9] showed a median enrichment of 0.399.
In the case of LSVCHR [DPYS], the median enrichment was 1.17.
With “LSVHWGPSVVPFVENLLHKALLNCLELGTSIPMETSPVWGTWRICQRLSDMGPWQFYTGKWSAPLGYTRLSVFSPSILFPLHM [NYNRIN]” the median enrichment was 3.7.
Work on LSYQTTY [USP51] yielded a median enrichment of 1.11.
With LTAPPPPLSPGPGG [VMO1] the median enrichment was 8.99.
With “LTATRMDTALAVPTLDRVSALLHTGGGAGAYSCSIKHPSYAPPQ [ACTL7A]” the median enrichment was 9.25.
“LTEPCWPAPTSLCSFLWFLLSFPTLRREIYFTALNSL [UBTD2]” gave a median enrichment of 9.94.
In the case of LTEQLLMSGG [NDUFS5], the median enrichment was 5.57.
“LTFQDEWFILSNLLLTEQSSEPFNFKLHQLCAEPWCKVLSHSFFLSVEFGAIVSGT [ATAD2B]” gave a median enrichment of 6.97.
“LTFSGNRADDYNIFFLMLTFLKIHIWDSYYQGSTYVNLQFMFQDICQMYYRCL [SUV39H2]” was tested, and the median enrichment was 10.1.
LTGLPTWLPT [AANAT] showed a median enrichment of 1.93.
“LTHAHAPLTLKRIHNSLEKHPHVCCRTHSSQLRPIPVTTASPPTPVTTASPPTPVTTASPPTALSPRPMSACPRAQDFLTGMW [SSH3]” was tested, and the median enrichment was 3.55.
LTLLKTGQSLPLCTF [MYCN] was tested, and the median enrichment was 15.2.
LTLQAGTVLLLSLQYIR [GTPBP2] gave a median enrichment of 9.07.
For LTLTV [ABCB1], the median enrichment was 1.67.
In the case of LTQPRGGSLVFVLKFLVPNVFSSTFS [IL36G], the median enrichment was 15.7.
In the case of LTRKCCCPSSTLRPGAG [FCHO1], the median enrichment was 7.02.
For “LTSDRRSSLSSLSGSKMTRANGTKFESCQVNTWVLSMVTSICFVMCVLFQPEWEMLIQLLQAAQWGWWL [CFH]”, the median enrichment was 6.21.
Work on LTSQST [ANGPT2] yielded a median enrichment of 0.829.
With “LTSSLQRSESGGGSACREGLDLHIFSGVVRASPYLLLSPCEEDPDLASFPRRGWGVPRVPVLEGPPSPSLITVLFSAPPSAAR [ZNF646]” the median enrichment was 4.64.
LTYFNYCIFISSFPNTNKIIL [DYNC2LI1] was tested, and the median enrichment was 8.97.
Work on LTYLGRLGK [APBB3] yielded a median enrichment of 9.37.
For “LTYLSLSRSQAVRGNRSHLLSLQASVCLCLRTWILDFNDAVDNDGRKGVGC [MGA]”, the median enrichment was 8.5.
Substance “LVAPPHWTHGLAHASPLLPLPAIDNVAGTSASPLQPSNFPGTLLSAPEEGAVVSCCLWAPASSAVLGSVLLASVNNKATVCSG [MCM5]” has a median enrichment of 4.44.
For “LVARALGVLLEAPRASRIASQLPGQPTLLQPLTRTPVIRTGAPVPWSPPWAHVLTQAQQ [OVOL1]”, the median enrichment was 9.61.
LVC [SYT16] was tested, and the median enrichment was 1.2.
With LVCPLATDTVGNQTLSWSLLLAHSTSKWI [HIBADH] the median enrichment was 12.8.
LVGWLLVFVSFLSCLLLKGNQK [MYCT1] showed a median enrichment of 9.75.
Work on LVISSVFCFLF [MS4A1] yielded a median enrichment of 7.46.
LVLCS [PIGX] gave a median enrichment of 9.44.
Work on “LVLDKREAWKTPHASYHTSVLWLLSFEVLYCNLLICMECAYFLKGY [MED6]” yielded a median enrichment of 7.75.
In the case of LVLIPTFPCDLGCRCSCCKMEANLTGVL [ADD2], the median enrichment was 2.88.
“LVLLVLLICRCHRTAVTRFLIVPAQPCPRTLGCMSHNMDPG [TREML4]” showed a median enrichment of 3.13.
In the case of LVLRLRATPLPSACSFPGIFVSF [EPS15L1], the median enrichment was 18.
Substance “LVRGRGGAGTYLPESWRQNEALSIPGILLLLRADARPRASRDGVGEVLPTPLSSFPSSTKFPPALTE [SELENOM]” has a median enrichment of 4.2.
LVRIFNIFQKCIYIVLLCFFHCTL [SLC39A12] was tested, and the median enrichment was 9.98.
